Data taken from patent publication US5574007A, “Polypeptide capable of interacting with thrombin” (Asahi Kasei Kogyo Kabushiki Kaisha, priority 1990, dated 1996).

Key:
[1] = target: thrombin (Homo sapiens, UniProt P00734); assay: Capability of binding to thrombin of thrombomodulin deletion polypeptides; details: expressed in COS-1 cells, purified
[2] = target: T1, thrombin-catalyzed activation of protein C (Homo sapiens, UniProt P00734); assay: Activated protein C formation against reaction time with purified polypeptide (Example 4-(6)); type: biochemical
T1 construct: are added 50 μg/ml protein C, 5 nM thrombin and 5 nM of each of the purified polypeptides
Description: To 0.02M Tris-HCl buffer (pH 8.5) containing 0.1M NaCl, 0.5 mM CaCl2 and 10 mg/ml BSA are added 50 μg/ml protein C, 5 nM thrombin and 5 nM of each of the purified polypeptides of the present invention, and reacted at 37° C. To each of the reaction mixtures are added 300 μg/ml antithrombin III (manufactured and sold by Sigma Chemical Company, U.S.A.) and 5 mM EDTA to terminate the reaction. Then, the amount of the activated protein C produced by the reaction is determined by the method described in Example 1-(3) in which a synthetic substrate is used.

[3] = target: T2, thrombin-catalyzed conversion of fibrinogen to fibrin (Homo sapiens, UniProt P00734); assay: Anticoagulating activity: clotting time of a fibrinogen solution; type: biochemical; details: 0 to 50 nM polypeptide, 10 nM thrombin; polypeptide from COS-1 or CHO cells
T2 construct: Then, 10 nM thrombin is added to the mixture
Description: The activity of each of the polypeptides of the present invention to inhibit the thrombin-catalyzed conversion of fibrinogen to fibrin so as to inhibit blood coagulation, is determined by measuring clotting time using Coagulometer KC-10A (manufactured and sold by Heinrich Amelung A.G., Germany). Illustratively stated, to 0.05M Tris-HCl buffer (pH 7.5) containing 5 mM CaCl2 and 0.1M NaCl is added 3.0 μg of fibrinogen (Fraction I, manufactured and sold by Sigma Chemical Company, U.S.A.). To the resultant mixture is added 0 to 50 nM of each of the purified polypeptides of the present invention. Then, 10 nM thrombin is added to the mixture in such an amount that the total amount of the mixture becomes 0.4 ml, and then the coagulation time of the mixture is measured.

[4] = test system: thrombin-catalyzed platelet aggregation; assay: Platelet aggregation-inhibiting activity (Platelet Rich Plasma, HEMA TRACER IV); type: cell-based; details: polypeptide in molar amount equal to or more than thrombin; polypeptide from COS-1 or CHO cells
Description: The activity of each of the polypeptides of the present invention to inhibit the thrombin-catalyzed platelet aggregation is evaluated using platelet aggregation measuring apparatus HEMA TRACER IV (manufactured and sold by NIKO Bioscience, Inc., Japan). Measurement is carried out according to the manual attached thereto. When 40 μl of a 20 NIH unit/ml thrombin solution (manufactured and sold by SIGMA Chemical Co., U.S.A., T 6759) is added to 180 μl of a Platelet Rich Plasma (PRP) platelet solution (3×10^5 cells/μl) and incubated, the aggregation of platelets occurs. […] The aggregation of platelets is determined on the basis of the transparency, assuming the transparency of Platelet Poor Plasma (PPP) solution as 100%. The ratio of platelet aggregation is plotted against the incubation time (0 min: the time when thrombin or a mixture of thrombin and one of the polypeptides is added to the PRP solution). It is confirmed that the platelet aggregation is inhibited when one of the polypeptides of the present invention is added.

[5] = target: T1, thrombin-catalyzed activation of protein C; assay: Activity to promote the activation of protein C (Example 9-(4)); type: biochemical
Description: With respect to the polypeptide purified in Example 9-(3), the activity to promote the activation of protein C is measured according to the following method. That is, 10 μl of a peptide solution (10 nM), 10 μl of thrombin (15 nM), 10 μl of protein C (3.2 μM), 10 μl of 10×Assay buffer [0.5M Tris HCl (pH 7.5) containing 1% BSA, 1M NaCl and 20 mM CaCl2 ] and 60 μl of distilled water are mixed together. The mixture is reacted at 37° C. for one hour, and antithrombin III and hepalin are added at final concentrations of 100 nM and lu/ml, respectively, thereby stopping the reaction. To measure the concentration of activated protein C, the concentration of AMC ([…]) liberated from a 200 μM substrate of Boc-Leu-Ser-Thr-Arg-MCA in a buffer containing 0.05M Tris HCl (pH 8.0) and 0.1M CsCl is measured at an excitation wavelength of 380 nm and a measuring wavelength of 440 nm.

B1: polypeptide comprised of the 366th to 442nd amino acid residues of human thrombomodulin: deletion polypeptide expressed in COS-1 cells using vector pSV2 (protein)
chain: VDPCFRANCEYQCQPLNQTSYLCVCAEGFAPIPHEPHRCQMFCNQTACPADCDPNTQASCECPEGYILDDGFICTDI
[1]
  capability of binding to thrombin (in words): had the capability of binding to thrombin

B2: E456GlaAsp: polypeptide from PTTM2 CHO cells transfected with pSV2PTTMM6 (prothrombin leader), gamma-carboxyglutamic acid confirmed (protein)
chain: PVEDPCFRANCEYQCQPLNQTSYLCVCAEGFAPIPHEPHRCQMFCNQTACPADCDPNTQASCECPEGYILDDGFICTDIDECENGGFCSGVCHNLPGTFECICGPDSALVRHIGTDC
modifications: gamma-carboxyglutamic acid (Gla) in place of the Glu inserted before Asp367 (third residue of the purified polypeptide, where Edman degradation detected no amino acid); Gla confirmed by amino acid anal
[2]; 5 nM polypeptide, 5 nM thrombin, 50 μg/ml protein C, 37° C., polypeptide from COS-1 or CHO cells
  amount of activated protein C with reaction time (in words): increased with the lapse of reaction time
[2]; 30 min after the polypeptide addition
  amount of protein C activated, larger than in the presence of E456Glu: 80%
[3]
  clotting time of fibrinogen solution against amount of polypeptide (in words): the longer the clotting time
[4]
  thrombin-catalyzed platelet aggregation (in words): inhibited

B3: polypeptide comprised of the 407th to 480th amino acid residues of human thrombomodulin: deletion polypeptide expressed in COS-1 cells using vector pSV2 (protein)
chain: FCNQTACPADCDPNTQASCECPEGYILDDGFICTDIDECENGGFCSGVCHNLPGTFECICGPDSALVRHIGTDC
[1]
  capability of binding to thrombin (in words): had the capability of binding to thrombin

B4: E45: polypeptide of the 367th to 442nd amino acid residues of human thrombomodulin (pSV2TMD9) (protein)
chain: DPCFRANCEYQCQPLNQTSYLCVCAEGFAPIPHEPHRCQMFCNQTACPADCDPNTQASCECPEGYILDDGFICTDI
[5]
  activity relative to that of the 114-amino acid polypeptide: about one-tenth
[5]; peptide solution 10 nM, thrombin 15 nM, protein C 3.2 μM, 37° C., one hour
  production of activated protein C: 1.7 pmol
